Results: PMC11032447, “A hydrophobic groove in secretagogin allows for alternate interactions with SNAP-25 and syntaxin-4 in endocrine tissues” (Proceedings of the National Academy of Sciences of the …, 2024)
No end group written: not given here.

T1: human secretagogin (human, UniProt O76038 1-276)
T1 construct: human secretagogin; construct in Dataset S1; Construct limits are in Dataset S1; also called recombinant human secretagogin; source: recombinant; coexpressed and copurified with the GFP fusion, or purified
T1 sequence (looked up): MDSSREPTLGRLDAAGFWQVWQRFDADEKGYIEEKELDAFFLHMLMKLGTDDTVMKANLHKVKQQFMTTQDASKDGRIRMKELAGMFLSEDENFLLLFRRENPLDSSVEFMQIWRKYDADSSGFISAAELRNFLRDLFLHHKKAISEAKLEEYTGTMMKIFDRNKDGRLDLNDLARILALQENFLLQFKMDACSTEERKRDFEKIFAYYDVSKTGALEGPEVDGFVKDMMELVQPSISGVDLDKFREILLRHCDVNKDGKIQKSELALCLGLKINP

B1: mouse secretagogin (natural protein, UniProt Q91WD9 1-276, looked up)
chain: MDNARRKTPARLDAACFWQIWQRFDKEEKGYIRETELDAFFDHLLAKSGTEDTLMEENVQKVKEQLMTSHNVSKEGRILMKELASMFLSEDENFLLFFRLETPLDNSVEFMQIWRKYDADSSGFISAAELCNFLRDLFLHHKKNISEAELEEYTSTMMKIFDKNKDGRLDLNDLARILALQENFLLQFKMDASSTEERKRDFEKIFAHYDVSKTGALEGPEVDGFVKDMMELVQPSISGVDLDKFREILLRHCDVNKDGKIQKSELALCLGLKINP
notes: mouse secretagogin, the three-domain protein (domains A, B, C); construct in Dataset S1; also called mSCGN; SCGN; source: recombinant, produced and purified; E. coli BL21(DE3) named for the pull-down constructs
B2: Habc domain of mouse syntaxin-4 (domain or fragment, UniProt P70452 32-170, looked up)
chain: ARLGSPDDEFFQKVQTIRQTMAKLESKVRELEKQQVTILATPLPEESMKQGLQNLREEIKQLGREVRAQLKAIEPQKEEADENYNSVNTRMKKTQHGVLSQQFVELINKCNSMQSEYREKNVERIRRQLKITNAGMVSD
notes: mouse syntaxin-4, globular Habc domain; limits in Dataset S1; The His6 tag is told for the pull-down baits; a Habc with the N-peptide is m36; also called Habc module of syntaxin-4; syntaxin-4-derived Habc module; source: recombinant, produced and purified; E. coli BL21(DE3) named for the pull-down constructs

Experiments:
[1] = biological target: T1, human secretagogin; assay: co-expression and co-purification + SEC; GFP-peptide fusion coexpressed with human secretagogin; in the presence of Ca2+; conditions: partners not purified
[2] = biological target: T2, C-terminal SNARE domain of mouse SNAP-25 (mouse, UniProt P60879 140-206); assay: ITC; in the presence of Ca2+; conditions: both partners purified
T2 construct: mouse SNAP-25, C-terminal SNARE domain (helix), identical in SNAP25-1 and SNAP25-2; limits in Dataset S1; The pull-down fragments are said to derive from isoform-2; also called SNAP-25c; SNAP-25C; source: recombinant; E. coli BL21(DE3) named for the pull-down constructs

[3] = biological target: B2; assay: ITC; in the presence of Ca2+; conditions: both partners purified
[4] = biological target: B1; assay: ITC; in the presence of Ca2+; conditions: both partners purified
[5] = biological target: B1; assay: ITC; GFP-fusion peptides of the syntaxin-4 Hb helix; the sentence names no method, the values are said to stand in SI Fig. S3E and SI Table S1 (ITC data); conditions: both partners purified

T2 sequence (P60879 140-206): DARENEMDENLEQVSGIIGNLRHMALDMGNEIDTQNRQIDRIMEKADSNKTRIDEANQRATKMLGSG

Kd [4] [nM] | Kd [5] [nM] | Binder | further results
 |  | GIIGNLRHMALDMGNEIDTQNRQID (SNAP-25 stretch 155-179 (mouse and human identical), attached to the C-terminus of GFP; GFP serves as crystallization chaperon; also called GFP-SNAP-25c chimera; GFP-linked SNAP-25-peptide; source: coexpressed and copurified with secretagogin; not shown: GFP, N-terminal, kept) [GFP carrying the SNAP-25-derived peptide (AA155-179) at its C-terminus] | binding result [1]: binds
 |  | B1 | stoichiometry N [2]: 1; stoichiometry N [3]: 1
~209 |  | TPLPEESMKQGLQNLREEIKQLGREVRAQLKAIEPQKE (domain or fragment, UniProt P70452 72-109, looked up, limits in Dataset S1; Used as bait in the pull-down; also called Hb; syntaxin-4 Hb; source: recombinant; E. coli BL21(DE3) named for the pull-down constructs) [helix-b of the Habc domain of mouse syntaxin-4] | 
~14000 |  | B2 | 
~7000 |  | ARLGSPDDEFFQKVQTIRQTMAKLESKVRELEKQQVTILATPLPEESMK (domain or fragment, UniProt P70452 32-80, looked up, limits in Dataset S1; Used as bait in the pull-down; source: recombinant; E. coli BL21(DE3) named for the pull-down constructs) [helix-a of the Habc domain of mouse syntaxin-4] | 
 | 541 | ESMKQGLQNLREEIKQLGREVRAQLKAIEPQKE (also: fused as C-terminal tag to GFP, mouse syntaxin-4, stretch of the Hb helix, C-terminal tag on GFP; source: recombinant GFP fusion; not shown: GFP, N-terminal, kept) [GFPmSTX4Hb9] | 
~46.6 |  | GIIGNLRHMALDMGNEIDTQNRQID (mouse SNAP-25, stretch of the C-terminal helix; Tags of the deletion constructs are in Dataset S1; also called mSNAP-25^14−33; SNAP-25^14–33; source: recombinant deletion construct of SNAP-25c) [mouse SNAP-25 peptide 155-179] | 
 | 275 | TPLPEESMKQGLQNLREEIKQLGREVRAQLKAIEPQKE (also: fused as C-terminal tag to GFP, mouse syntaxin-4, stretch of the Hb helix, C-terminal tag on GFP; source: recombinant GFP fusion; not shown: GFP, N-terminal, kept) [GFPmSTX4Hb7] | 
 | 826 | GLQNLREEIKQLGREVRAQLKAIEPQKE (also: fused as C-terminal tag to GFP, mouse syntaxin-4, stretch of the Hb helix, C-terminal tag on GFP; A linker stands between GFP and the peptide; also called GFP-syntaxin-4-peptide; chimeric GFP-syntaxin-4 (STX4)-derived peptide; source: recombinant GFP fusion; complex with secretagogin isolated by preparative SEC; not shown: GFP, N-terminal, kept) [GFPmSTX4Hb10] | 
